This note sets out measurements from patent US20230203202A1 (DRAGONFLY THERAPEUTICS, published 2023).

The term EC50 denotes the concentration needed to bring the measured effect to its halfway point. Read a high EC50 as a less potent agent.

The labels stand for the following.
T1: human 5T4 on the cell surface (human, UniProt Q13641 32-420)
T1 construct: whole, on cells; also called h5T4; TPBG
T1 sequence (looked up): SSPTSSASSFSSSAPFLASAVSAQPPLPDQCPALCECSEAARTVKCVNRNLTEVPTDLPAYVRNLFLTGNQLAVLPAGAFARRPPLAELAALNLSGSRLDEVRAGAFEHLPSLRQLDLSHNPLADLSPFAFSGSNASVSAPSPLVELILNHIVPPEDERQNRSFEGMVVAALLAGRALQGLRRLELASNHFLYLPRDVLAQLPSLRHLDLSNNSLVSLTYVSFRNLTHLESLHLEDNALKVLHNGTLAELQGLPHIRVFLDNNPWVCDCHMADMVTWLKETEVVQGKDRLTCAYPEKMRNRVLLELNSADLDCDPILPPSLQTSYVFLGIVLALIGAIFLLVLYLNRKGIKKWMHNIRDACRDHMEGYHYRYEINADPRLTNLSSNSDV

B1: AB1879-TriNKET® (bispecific antibody, human IgG1, kappa)
chain: DIQLTQSPSSLSASVGDRVTITCRASQGVSTSTYTYMHWFQQKPGKAPKLLIKFASNLESGVPSRFSGSGSGTDFTLTISSLQPEDFATYYCQHSWEIPWTFGCGTKVEIKGGGGSGGGGSGGGGSGGGGSEVQLVESGGGLVQPGGSLRLSCAASGFTFSDYGMHWVRQAPGKCLEWVSYISSGSSTFYYADTVKGRFTISRDNAKNSLYLQMNSLRAEDTAVYYCGSSQSYYRGTMDYWGQGTTVTVSSGSDKTHTCPPCPAPELLGGPSVFLFPPKPKDTLMISRTPEVTCVVVDVSHEDPEVKFNWYVDGVEVHNAKTKPREEQYNSTYRVVSVLTVLHQDWLNGKEYKCKVSNKALPAPIEKTISKAKGQPREPRVYTLPPCRDELTKNQVSLTCLVKGFYPSDIAVEWESNGQPENNYKTTPPVLVSDGSFTLYSKLTVDKSRWQQGNVFSCSVMHEALHNHYTQKSLSLSPG
heavy: EVQLVESGGGLVKPGGSLRLSCAASGFTFSSYSMNWVRQAPGKGLEWVSSISSSSSYIYYADSVKGRFTISRDNAKNSLYLQMNSLRAEDTAVYYCARGAPIGAAAGWFDPWGQGTLVTVSSASTKGPSVFPLAPSSKSTSGGTAALGCLVKDYFPEPVTVSWNSGALTSGVHTFPAVLQSSGLYSLSSVVTVPSSSLGTQTYICNVNHKPSNTKVDKKVEPKSCDKTHTCPPCPAPELLGGPSVFLFPPKPKDTLMISRTPEVTCVVVDVSHEDPEVKFNWYVDGVEVHNAKTKPREEQYNSTYRVVSVLTVLHQDWLNGKEYKCKVSNKALPAPIEKTISKAKGQPREPQVCTLPPSRDELTENQVSLTCLVKGFYPSDIAVEWESNGQPENNYKTTPPVLDSDGSFFLYSWLTVDKSRWQQGNVFSCSVMHEALHNHYTQKSLSLSPG
light: DIQMTQSPSSVSASVGDRVTITCRASQGISSWLAWYQQKPGKAPKLLIYAASSLQSGVPSRFSGSGSGTDFTLTISSLQPEDFATYYCQQGVSFPRTFGGGTKVEIKRTVAAPSVFIFPPSDEQLKSGTASVVCLLNNFYPREAKVQWKVDNALQSGNSQESVTEQDSKDSTYSLSSTLTLSKADYEKHKVYACEVTHQGLSSPVTKSFNRGEC
notes: F3′ format; also called AB1879-VL-VH TriNKET®; 11F09-IGHV3-48*01 BM1-YB
B2: AB1883-TriNKET® (bispecific antibody, human IgG1, kappa)
chain: DIQLTQSPSSLSASVGDRVTITCRASQGVSTSTYTYMHWFQQKPGKAPKLLIKFASNLESGVPSRFSGSGSGTDFTLTISSLQPEDFATYYCQHSWEIPWTFGCGTKVEIKGGGGSGGGGSGGGGSGGGGSQVQLVESGGGLVKPGGSLRLSCAASGFTFSDYGMHWVRQAPGKCLEWLAYISSGSSTFYYADTVKGRFTISRDNAKNSLYLQMNSLRAEDTAVYYCGSSQSYYRGTMDYWGQGTTVTVSSGSDKTHTCPPCPAPELLGGPSVFLFPPKPKDTLMISRTPEVTCVVVDVSHEDPEVKFNWYVDGVEVHNAKTKPREEQYNSTYRVVSVLTVLHQDWLNGKEYKCKVSNKALPAPIEKTISKAKGQPREPRVYTLPPCRDELTKNQVSLTCLVKGFYPSDIAVEWESNGQPENNYKTTPPVLVSDGSFTLYSKLTVDKSRWQQGNVFSCSVMHEALHNHYTQKSLSLSPG
heavy: EVQLVESGGGLVKPGGSLRLSCAASGFTFSSYSMNWVRQAPGKGLEWVSSISSSSSYIYYADSVKGRFTISRDNAKNSLYLQMNSLRAEDTAVYYCARGAPIGAAAGWFDPWGQGTLVTVSSASTKGPSVFPLAPSSKSTSGGTAALGCLVKDYFPEPVTVSWNSGALTSGVHTFPAVLQSSGLYSLSSVVTVPSSSLGTQTYICNVNHKPSNTKVDKKVEPKSCDKTHTCPPCPAPELLGGPSVFLFPPKPKDTLMISRTPEVTCVVVDVSHEDPEVKFNWYVDGVEVHNAKTKPREEQYNSTYRVVSVLTVLHQDWLNGKEYKCKVSNKALPAPIEKTISKAKGQPREPQVCTLPPSRDELTENQVSLTCLVKGFYPSDIAVEWESNGQPENNYKTTPPVLDSDGSFFLYSWLTVDKSRWQQGNVFSCSVMHEALHNHYTQKSLSLSPG
light: DIQMTQSPSSVSASVGDRVTITCRASQGISSWLAWYQQKPGKAPKLLIYAASSLQSGVPSRFSGSGSGTDFTLTISSLQPEDFATYYCQQGVSFPRTFGGGTKVEIKRTVAAPSVFIFPPSDEQLKSGTASVVCLLNNFYPREAKVQWKVDNALQSGNSQESVTEQDSKDSTYSLSSTLTLSKADYEKHKVYACEVTHQGLSSPVTKSFNRGEC
notes: F3′ format; also called AB1883-VL-VH TriNKET®; 11F09-IGHV3-11*01 BM2-YB
B3: AB1889-TriNKET® (bispecific antibody, human IgG1, kappa)
chain: DIQLTQSPSSLSASVGDRVTITCRASQGVSTSTYTYMHWFQQKPGKAPKLLIKFASNLESGVPSRFSGSGSGTDFTLTISSLQPEDFATYYCQHSWEIPWTFGCGTKVEIKGGGGSGGGGSGGGGSGGGGSEVQLVESGGGLVQPGGSLRLSCAASGFTFSDYGMHWVRQAPGKCLEWLAYISSGSSTFYYADTVKGRFTISRDNAKNSLYLQMNSLRAEDTAVYYCGSSQSYYRGTMDYWGQGTTVTVSSGSDKTHTCPPCPAPELLGGPSVFLFPPKPKDTLMISRTPEVTCVVVDVSHEDPEVKFNWYVDGVEVHNAKTKPREEQYNSTYRVVSVLTVLHQDWLNGKEYKCKVSNKALPAPIEKTISKAKGQPREPRVYTLPPCRDELTKNQVSLTCLVKGFYPSDIAVEWESNGQPENNYKTTPPVLVSDGSFTLYSKLTVDKSRWQQGNVFSCSVMHEALHNHYTQKSLSLSPG
heavy: EVQLVESGGGLVKPGGSLRLSCAASGFTFSSYSMNWVRQAPGKGLEWVSSISSSSSYIYYADSVKGRFTISRDNAKNSLYLQMNSLRAEDTAVYYCARGAPIGAAAGWFDPWGQGTLVTVSSASTKGPSVFPLAPSSKSTSGGTAALGCLVKDYFPEPVTVSWNSGALTSGVHTFPAVLQSSGLYSLSSVVTVPSSSLGTQTYICNVNHKPSNTKVDKKVEPKSCDKTHTCPPCPAPELLGGPSVFLFPPKPKDTLMISRTPEVTCVVVDVSHEDPEVKFNWYVDGVEVHNAKTKPREEQYNSTYRVVSVLTVLHQDWLNGKEYKCKVSNKALPAPIEKTISKAKGQPREPQVCTLPPSRDELTENQVSLTCLVKGFYPSDIAVEWESNGQPENNYKTTPPVLDSDGSFFLYSWLTVDKSRWQQGNVFSCSVMHEALHNHYTQKSLSLSPG
light: DIQMTQSPSSVSASVGDRVTITCRASQGISSWLAWYQQKPGKAPKLLIYAASSLQSGVPSRFSGSGSGTDFTLTISSLQPEDFATYYCQQGVSFPRTFGGGTKVEIKRTVAAPSVFIFPPSDEQLKSGTASVVCLLNNFYPREAKVQWKVDNALQSGNSQESVTEQDSKDSTYSLSSTLTLSKADYEKHKVYACEVTHQGLSSPVTKSFNRGEC
notes: F3′ format; also called AB1889-VL-VH TriNKET®; 11F09-IGHV3-48*01 BM2-YB
B4: AB1880-TriNKET® (bispecific antibody, human IgG1, kappa)
chain: DIQLTQSPSSLSASVGDRVTITCRASQGVSTSTYTYMHWFQQKPGKAPKLLIKFASNLESGVPSRFSGSGSGTDFTLTISSLQPEDFATYYCQHSWEIPWTFGCGTKVEIKGGGGSGGGGSGGGGSGGGGSEVQLVESGGGLVKPGGSLRLSCEASGFTFSDYGMHWVRQAPGKCLEWLAYISSGSSTFYYADTVKGRFTISRDNAKNSLYLQMNSLRAEDTAVYYCGSSQSYYRGTMDYWGQGTTVTVSSGSDKTHTCPPCPAPELLGGPSVFLFPPKPKDTLMISRTPEVTCVVVDVSHEDPEVKFNWYVDGVEVHNAKTKPREEQYNSTYRVVSVLTVLHQDWLNGKEYKCKVSNKALPAPIEKTISKAKGQPREPRVYTLPPCRDELTKNQVSLTCLVKGFYPSDIAVEWESNGQPENNYKTTPPVLVSDGSFTLYSKLTVDKSRWQQGNVFSCSVMHEALHNHYTQKSLSLSPG
heavy: EVQLVESGGGLVKPGGSLRLSCAASGFTFSSYSMNWVRQAPGKGLEWVSSISSSSSYIYYADSVKGRFTISRDNAKNSLYLQMNSLRAEDTAVYYCARGAPIGAAAGWFDPWGQGTLVTVSSASTKGPSVFPLAPSSKSTSGGTAALGCLVKDYFPEPVTVSWNSGALTSGVHTFPAVLQSSGLYSLSSVVTVPSSSLGTQTYICNVNHKPSNTKVDKKVEPKSCDKTHTCPPCPAPELLGGPSVFLFPPKPKDTLMISRTPEVTCVVVDVSHEDPEVKFNWYVDGVEVHNAKTKPREEQYNSTYRVVSVLTVLHQDWLNGKEYKCKVSNKALPAPIEKTISKAKGQPREPQVCTLPPSRDELTENQVSLTCLVKGFYPSDIAVEWESNGQPENNYKTTPPVLDSDGSFFLYSWLTVDKSRWQQGNVFSCSVMHEALHNHYTQKSLSLSPG
light: DIQMTQSPSSVSASVGDRVTITCRASQGISSWLAWYQQKPGKAPKLLIYAASSLQSGVPSRFSGSGSGTDFTLTISSLQPEDFATYYCQQGVSFPRTFGGGTKVEIKRTVAAPSVFIFPPSDEQLKSGTASVVCLLNNFYPREAKVQWKVDNALQSGNSQESVTEQDSKDSTYSLSSTLTLSKADYEKHKVYACEVTHQGLSSPVTKSFNRGEC
notes: F3′ format; also called AB1880-VL-VH TriNKET®; 11F09-IGHV3-21*05 BM2-YB
B5: AB1888-TriNKET® (bispecific antibody, human IgG1, kappa)
chain: DIQLTQSPSSLSASVGDRVTITCRASQGVSTSTYTYMHWFQQKPGKAPKLLIKFASNLESGVPSRFSGSGSGTDFTLTISSLQPEDFATYYCQHSWEIPWTFGCGTKVEIKGGGGSGGGGSGGGGSGGGGSEVQLVESGGGLVKPGGSLRLSCAASGFTFSDYGMHWVRQAPGKCLEWVSYISSGSSTFYYADTVKGRFTISRDNAKNSLYLQMNSLRAEDTAVYYCGSSQSYYRGTMDYWGQGTTVTVSSGSDKTHTCPPCPAPELLGGPSVFLFPPKPKDTLMISRTPEVTCVVVDVSHEDPEVKFNWYVDGVEVHNAKTKPREEQYNSTYRVVSVLTVLHQDWLNGKEYKCKVSNKALPAPIEKTISKAKGQPREPRVYTLPPCRDELTKNQVSLTCLVKGFYPSDIAVEWESNGQPENNYKTTPPVLVSDGSFTLYSKLTVDKSRWQQGNVFSCSVMHEALHNHYTQKSLSLSPG
heavy: EVQLVESGGGLVKPGGSLRLSCAASGFTFSSYSMNWVRQAPGKGLEWVSSISSSSSYIYYADSVKGRFTISRDNAKNSLYLQMNSLRAEDTAVYYCARGAPIGAAAGWFDPWGQGTLVTVSSASTKGPSVFPLAPSSKSTSGGTAALGCLVKDYFPEPVTVSWNSGALTSGVHTFPAVLQSSGLYSLSSVVTVPSSSLGTQTYICNVNHKPSNTKVDKKVEPKSCDKTHTCPPCPAPELLGGPSVFLFPPKPKDTLMISRTPEVTCVVVDVSHEDPEVKFNWYVDGVEVHNAKTKPREEQYNSTYRVVSVLTVLHQDWLNGKEYKCKVSNKALPAPIEKTISKAKGQPREPQVCTLPPSRDELTENQVSLTCLVKGFYPSDIAVEWESNGQPENNYKTTPPVLDSDGSFFLYSWLTVDKSRWQQGNVFSCSVMHEALHNHYTQKSLSLSPG
light: DIQMTQSPSSVSASVGDRVTITCRASQGISSWLAWYQQKPGKAPKLLIYAASSLQSGVPSRFSGSGSGTDFTLTISSLQPEDFATYYCQQGVSFPRTFGGGTKVEIKRTVAAPSVFIFPPSDEQLKSGTASVVCLLNNFYPREAKVQWKVDNALQSGNSQESVTEQDSKDSTYSLSSTLTLSKADYEKHKVYACEVTHQGLSSPVTKSFNRGEC
notes: F3′ format; also called AB1888-VL-VH TriNKET®; 11F09-IGHV3-21*05 BM1-YB

The target in this test is T1, human 5T4 on the cell surface. The test can be described thus: cell binding assay on 5T4-expressing tumor cells (cell line not given).
For the molecule B1, the half-maximal effective concentration (EC50) came out at 9.18 nM and the “Max Fold Over Background (FOB)” value was found to be 62.9 fold over background.

Turning to B2, the EC50 amounted to 6.02 nM and the “Max Fold Over Background (FOB)” value worked out at 69.4 fold over background.

As for B3, the EC50 was found to be 20.7 nM and the “Max Fold Over Background (FOB)” value was 11.7 fold over background.

As for B4, it took 21.7 nM to reach a half-maximal effect (EC50) and the “Max Fold Over Background (FOB)” value was found to be 48.5 fold over background.

In the case of B5, the concentration for a half-maximal effect (EC50) was found to be 18.5 nM and the “Max Fold Over Background (FOB)” value was found to be 22.1 fold over background.
